Assay results: IntAct's records for PubMed 12626716

B1: mRNA 3'-end-processing protein YTH1 (Saccharomyces cerevisiae), Q06102 (parent)
chain: MSLIHPDTAKYPFKFEPFLRQEYSFSLDPDRPICEFYNSREGPKSCPRGPLCPKKHVLPIFQNKIVCRHWLRGLCKKNDQCEYLHEYNLRKMPECVFFSKNGYCTQSPDCQYLHIDPASKIPKCENYEMGFCPLGSSCPRRHIKKVFCQRYMTGFCPLGKDECDMEHPQFIIPDEGSKLRIKRDDEINTRKMDEEKERRLNAIINGEV
partner: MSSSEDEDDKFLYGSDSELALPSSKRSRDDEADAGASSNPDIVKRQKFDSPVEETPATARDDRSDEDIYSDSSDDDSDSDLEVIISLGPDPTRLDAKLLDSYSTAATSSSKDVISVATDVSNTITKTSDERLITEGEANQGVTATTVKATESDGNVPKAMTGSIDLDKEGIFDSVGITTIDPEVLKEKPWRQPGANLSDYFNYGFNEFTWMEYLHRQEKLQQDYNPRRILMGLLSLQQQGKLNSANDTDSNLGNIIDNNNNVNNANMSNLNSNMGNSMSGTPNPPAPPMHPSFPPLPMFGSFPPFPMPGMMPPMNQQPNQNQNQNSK

Variants of: B1
Details: with fip1_yeast FIP1, P45976

Variant | effect of a mutation on the interaction
G130R | decreasing interaction
